Measurements as given in the supplement of paper PMC5998384.

Key:
[1] = tested on: HeLa Kyoto; assay: thermal stability score vs G1/S (z-score of summed log2 fold changes over temperatures); higher = more thermally stable than in G1/S
[2] = tested on: HeLa Kyoto; assay: melting temperature (median over replicates), in situ; higher = more thermally stable
[3] = tested on: HeLa Kyoto; assay: solubility change mitosis vs G1/S (difference of NP-40 vs SDS log2 ratios) (log2 ratio difference); higher = more soluble in mitosis
[4] = tested on: HeLa Kyoto; assay: solubility in G1/S (NP-40 vs SDS abundance) (log2 ratio); higher = more soluble; conditions: cell cycle stage: G1/S
[5] = cell cycle stage: early G1 (4.5 h after nocodazole release)
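Throughout, for melting temperature (median over replicates), in situ: HeLa Kyoto cells synchronized by double thymidine or nocodazole block, proteins quantified by TMT10plex mass spectrometry, three independent biological replicates.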
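Throughout, for solubility change mitosis vs G1/S (difference of NP-40 vs SDS log2 ratios): synchronized HeLa Kyoto cells (double thymidine block for G1/S, nocodazole release for mitosis), protein amounts in NP-40 versus SDS lysates quantified by mass spectrometry, three biological replicates.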
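Throughout, for solubility in G1/S (NP-40 vs SDS abundance): HeLa Kyoto cells arrested at G1/S by double thymidine block, proteins quantified by TMT10plex mass spectrometry in mild NP-40 versus SDS extracts, three biological replicates.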
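Throughout, for thermal stability score vs G1/S (z-score of summed log2 fold changes over temperatures): synchronized HeLa Kyoto cells, proteins quantified by TMT10plex mass spectrometry, three biological replicates, mitosis taken 0.5 h after nocodazole release, G1/S directly after double thymidine block.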

Sequence: MRNLKLFRTLEFRDIQGPGNPQCFSLRTEQGTVLIGSEHGLIEVDPVSREVKNEVSLVAEGFLPEDGSGRIVGVQDLLDQESVCVATASGDVILCSLSTQQLECVGSVASGISVMSWSPDQELVLLATGQQTLIMMTKDFEPILEQQIHQDDFGESKFITVGWGRKETQFHGSEGRQAAFQMQMHESALPWDDHRPQVTWRGDGQFFAVSVVCPETGARKVRVWNREFALQSTSEPVAGLGPALAWKPSGSLIASTQDKPNQQDIVFFEKNGLLHGHFTLPFLKDEVKVNDLLWNADSSVLAVWLEDLQREESSIPKTCVQLWTVGNYHWYLKQSLSFSTCGKSKIVSLMWDPVTPYRLHVLCQGWHYLAYDWHWTTDRSVGDNSSDLSNVAVIDGNRVLVTVFRQTVVPPPMCTYQLLFPHPVNQVTFLAHPQKSNDLAVLDASNQISVYKCGDCPSADPTVKLGAVGGSGFKVCLRTPHLEKRYKIQFENNEDQDVNPLKLGLLTWIEEDVFLAVSHSEFSPRSVIHHLTAASSEMDEEHGQLNVSSSAAVDGVIISLCCNSKTKSVVLQLADGQIFKYLWESPSLAIKPWKNSGGFPVRFPYPCTQTELAMIGEEECVLGLTDRCRFFINDIEVASNITSFAVYDEFLLLTTHSHTCQCFCLRDASFKTLQAGLSSNHVSHGEVLRKVERGSRIVTVVPQDTKLVLQMPRGNLEVVHHRALVLAQIRKWLDKLMFKEAFECMRKLRINLNLIYDHNPKVFLGNVETFIKQIDSVNHINLFFTELKEEDVTKTMYPAPVTSSVYLSRDPDGNKIDLVCDAMRAVMESINPHKYCLSILTSHVKKTTPELEIVLQKVHELQGNAPSDPDAVSAEEALKYLLHLVDVNELYDHSLGTYDFDLVLMVAEKSQKDPKEYLPFLNTLKKMETNYQRFTIDKYLKRYEKAIGHLSKCGPEYFPECLNLIKDKNLYNEALKLYSPSSQQYQDISIAYGEHLMQEHMYEPAGLMFARCGAHEKALSAFLTCGNWKQALCVAAQLNFTKDQLVGLGRTLAGKLVEQRKHIDAAMVLEECAQDYEEAVLLLLEGAAWEEALRLVYKYNRLDIIETNVKPSILEAQKNYMAFLDSQTATFSRHKKRLLVVRELKEQAQQAGLDDEVPHGQESDLFSETSSVVSGSEMSGKYSHSNSRISARSSKNRRKAERKKHSLKEGSPLEDLALLEALSEVVQNTENLKDEVYHILKVLFLFEFDEQGRELQKAFEDTLQLMERSLPEIWTLTYQQNSATPVLGPNSTANSIMASYQQQKTSVPVLDAELFIPPKINRRTQWKLSLLD [IKBKAP]
- thermal stability score [1, 5]: 0.962
- thermal stability score ([1]; cell cycle stage: mitosis): -0.0976
- melting temperature ([2]; cell cycle stage: G1/S): 50.2 °C
- melting temperature ([2]; cell cycle stage: mitosis): 50 °C
- solubility change mitosis (log2) [3]: -0.15
- solubility in G1/S (log2) [4]: -0.206

Sequence: MRPMRIFVNDDRHVMAKHSSVYPTQEELEAVQNMVSHTERALKAVSDWIDEQEKGSSEQAESDNMDVPPEDDSKEGAGEQKTEHMTRTLRGVMRVGLVAKGLLLKGDLDLELVLLCKEKPTTALLDKVADNLAIQLAAVTEDKYEILQSVDDAAIVIKNTKEPPLSLTIHLTSPVVREEMEKVLAGETLSVNDPPDVLDRQKCLAALASLRHAKWFQARANGLKSCVIVIRVLRDLCTRVPTWGPLRGWPLELLCEKSIGTANRPMGAGEALRRVLECLASGIVMPDGSGIYDPCEKEATDAIGHLDRQQREDITQSAQHALRLAAFGQLHKVLGMDPLPSKMPKKPKNENPVDYTVQIPPSTTYAITPMKRPMEEDGEEKSPSKKKKKIQKKEEKAEPPQAMNALMRLNQLKPGLQYKLVSQTGPVHAPIFTMSVEVDGNSFEASGPSKKTAKLHVAVKVLQDMGLPTGAEGRDSSKGEDSAEETEAKPAVVAPAPVVEAVSTPSAAFPSDATAEQGPILTKHGKNPVMELNEKRRGLKYELISETGGSHDKRFVMEVEVDGQKFQGAGSNKKVAKAYAALAALEKLFPDTPLALDANKKKRAPVPVRGGPKFAAKPHNPGFGMGGPMHNEVPPPPNLRGRGRGGSIRGRGRGRGFGGANHGGYMNAGAGYGSYGYGGNSATAGYSQFYSNGGHSGNASGGGGGGGGGSSGYGSYYQGDNYNSPVPPKHAGKKQPHGGQQKPSYGSGYQSHQGQQQSYNQSPYSNYGPPQGKQKGYNHGQGSYSYSNSYNSPGGGGGSDYNYESKFNYSGSGGRSGGNSYGSGGASYNPGSHGGYGGGSGGGSSYQGKQGGYSQSNYNSPGSGQNYSGPPSSYQSSQGGYGRNADHSMNYQYR [ILF3]
- thermal stability score [1, 5]: -0.903
- thermal stability score ([1]; cell cycle stage: mitosis): -1.89
- melting temperature ([2]; cell cycle stage: G1/S): 54.1 °C
- melting temperature ([2]; cell cycle stage: mitosis): 53.9 °C
- solubility change mitosis (log2) [3]: 0.113
- solubility in G1/S (log2) [4]: -0.123

Sequence: MRPPGFLSRAPSLNRAERGIWSCSMDQREPLPPAPAENEMKYDTNNNEEEEGEQFDFDSGDEIPEADRQAPSAPETGGAGASEAPAPTGGEDGAGAETTPVAEPTKLVLPMKVNPYSVIDITPFQEDQPPTPVPSAEEENVGLHVPCGYLVPVPCGYAVPSNLPLLLPAYSSPVIICATSLDEEAETPEVTEDRQPNSLSSEEPPTSEDQVGREDSALARWAADPANTAWMENPEEAIYDDVPRENSDSEPDEMIYDDVENGDEGGNSSLEYGWSSSEFESYEEQSDSECKNGIPRSFLRSNHKKQLSHDLTRLKEHYEKKMRDLMASTVGVVEIQQLRQKHELKMQKLVKAAKDGTKDGLERTRAAVKRGRSFIRTKSLIAQDHRSSLEEEQNLFIDVDCKHPEAILTPMPEGLSQQQVVRRYILGSVVDSEKNYVDALKRILEQYEKPLSEMEPKVLSERKLKTVFYRVKEILQCHSLFQIALASRVSEWDSVEMIGDVFVASFSKSMVLDAYSEYVNNFSTAVAVLKKTCATKPAFLEFLKQEQEASPDRTTLYSLMMKPIQRFPQFILLLQDMLKNTSKGHPDRLPLQMALTELETLAEKLNERKRDADQRCEVKQIAKAINERYLNKLLSSGSRYLIRSDDMIETVYNDRGEIVKTKERRVFMLNDVLMCATVSSRPSHDSRVMSSQRYLLKWSVPLGHVDAIEYGSSAGTGEHSRHLAVHPPESLAVVANAKPNKVYMGPGQLYQDLQNLLHDLNVIGQITQLIGNLKGNYQNLNQSVAHDWTSGLQRLILKKEDEIRAADCCRIQLQLPGKQDKSGRPTFFTAVFNTFTPAIKESWVNSLQMAKLALEEENHMGWFCVEDDGNHIKKEKHPLLVGHMPVMVAKQQEFKIECAAYNPEPYLNNESQPDSFSTAHGFLWIGSCTHQMGQIAIVSFQNSTPKVIECFNVESRILCMLYVPVEEKRREPGAPPDPETPAVRASDVPTICVGTEEGSISIYKSSQGSKKVRLQHFFTPEKSTVMSLACTSQSLYAGLVNGAVASYARAPDGSWDSEPQKVIKLGVLPVRSLLMMEDTLWAASGGQVFIISVETHAVEGQLEAHQEEGMVISHMAVSGVGIWIAFTSGSTLRLFHTETLKHLQDINIATPVHNMLPGHQRLSVTSLLVCHGLLMVGTSLGVLVALPVPRLQGIPKVTGRGMVSYHAHNSPVKFIVLATALHEKDKDKSRDSLAPGPEPQDEDQKDALPSGGAGSSLSQGDPDAAIWLGDSLGSMTQKSDLSSSSGSLSLSHGSSSLEHRSEDSTIYDLLKDPVSLRSKARRAKKAKASSALVVCGGQGHRRVHRKARQPHQEELAPTVMVWQIPLLNI [ARHGEF10]
- thermal stability score [1, 5]: -0.414
- thermal stability score ([1]; cell cycle stage: mitosis): 0.205
- melting temperature ([2]; cell cycle stage: G1/S): 49.3 °C
- melting temperature ([2]; cell cycle stage: mitosis): 49.8 °C
- solubility change mitosis (log2) [3]: -0.182
- solubility in G1/S (log2) [4]: -0.0539

Sequence: MRQKHYLEAAARGLHDSCPGQARYLLWAYTSSHDDKSTFEETCPYCFQLLVLDNSRVRLKPKARLTPKIQKLLNREARNYTLSFKEAKMVKKFKDSKSVLLITCKTCNRTVKHHGKSRSFVSTLKSNPATPTSKLSLKTPERRTANPNHDMSGSKGKSPASVFRTPTSGQSVSTCSSKNTSKTKKHFSQLKMLLSQNESQKIPKVDFRNFLSSLKGGLLK [C18ORF21]
- thermal stability score [1, 5]: -0.862
- thermal stability score ([1]; cell cycle stage: mitosis): -0.417
- melting temperature ([2]; cell cycle stage: mitosis): 46.8 °C
- solubility change mitosis (log2) [3]: 2.72
- solubility in G1/S (log2) [4]: -0.722

Sequence: MRRKEKRLLQAVALVLAALVLLPNVGLWALYRERQPDGTPGGSGAAVAPAAGQGSHSRQKKTFFLGDGQKLKDWHDKEAIRRDAQRVGNGEQGRPYPMTDAERVDQAYRENGFNIYVSDKISLNRSLPDIRHPNCNSKRYLETLPNTSIIIPFHNEGWSSLLRTVHSVLNRSPPELVAEIVLVDDFSDREHLKKPLEDYMALFPSVRILRTKKREGLIRTRMLGASVATGDVITFLDSHCEANVNWLPPLLDRIARNRKTIVCPMIDVIDHDDFRYETQAGDAMRGAFDWEMYYKRIPIPPELQKADPSDPFESPVMAGGLFAVDRKWFWELGGYDPGLEIWGGEQYEISFKVWMCGGRMEDIPCSRVGHIYRKYVPYKVPAGVSLARNLKRVAEVWMDEYAEYIYQRRPEYRHLSAGDVAVQKKLRSSLNCKSFKWFMTKIAWDLPKFYPPVEPPAAAWGEIRNVGTGLCADTKHGALGSPLRLEGCVRGRGEAAWNNMQVFTFTWREDIRPGDPQHTKKFCFDAISHTSPVTLYDCHSMKGNQLWKYRKDKTLYHPVSGSCMDCSESDHRIFMNTCNPSSLTQQWLFEHTNSTVLEKFNRN [GALNT10]
- thermal stability score [1, 5]: 0.401
- thermal stability score ([1]; cell cycle stage: mitosis): 0.507
- melting temperature ([2]; cell cycle stage: G1/S): 49.9 °C
- melting temperature ([2]; cell cycle stage: mitosis): 52.5 °C
- solubility change mitosis (log2) [3]: -0.0786
- solubility in G1/S (log2) [4]: -0.106
